Source: patent publication US20220204623A1 (BIO THERA SOLUTIONS, published 2022)
Numbering of substitutions follows the chain as printed. Blank lines part the entries; values can stand above or below the binder they belong to.

How the values were obtained:
[1] = target: hPD-1 (Sino Biological Inc., Catalog No.: 10377-H03H-B) (human) (UniProt Q15116); assay: BLI (Octet) as in Example 4, biotinylated hPD-1 on streptavidin biosensor
[2] = target: T1, hPD-1 (Sino Biological Inc., Catalog No.: 10377-H03H-B) (human, UniProt Q15116 25-167); assay: as above
T1 construct: Bought protein; also called human PD-1; purified hPD-1
Method: (§1) A streptavidin biosensor was pre-wetted by immersing in PBS in a well for 10 minutes, and then the biosensor was equilibrated with PBS for 2 minutes. The biosensor was immersed in the solution of 20 μg/mL biotinylated hPD-1 in PBS for 5 minutes to couple with biotinylated hPD-1, and then was equilibrated with PBS for 2 minutes. The biosensors were placed in wells containing antibody solutions of various concentrations (0.125 to 2 nM, SDS-PAGE purity >99%) to observe their binding to the anti-PD-1 antibody, and the binding was monitored and measured for 30 minutes. After the biosensor was transferred to PBS, dissociation was monitored and measured for 90 minutes. The observed binding and dissociation rates (kbinding and kdissociation) were fitted with a 1:1 binding global fit model containing all test concentrations, and the equilibrium binding constant KD was calculated.
The amino acid sequences of VL and VH regions of the related antibodies are shown in the sequence listing.

[3] = target: T1, hPD-1 (Sino Biological Inc., Catalog …); assay: SPR (Biacore), antibody captured on protein A chip, PD-1 in solution 0.625-10 nM, 1:1 Langmuir fit
Method: A protein A chip was used for detection. […] Then the flow rate was adjusted to 30 μl/min, and PD-1 solutions of different concentrations (0.625 nM, 1.25 nM, 2.5 nM, 5 nM, and 10 nM) were fed in sequence, with a binding time of 180 s and a dissociation time of 1,200 s.

[4] = target: T1, hPD-1 (Sino Biological Inc., Catalog …); assay: ELISA, hPD-1 coated on the plate
Method: The binding of the antibodies to hPD-1 was determined by enzyme-linked immunosorbent assay (ELISA). hPD-1 was coated on a 96-well plate by incubation overnight at 4° C. After coating, the plate was washed 5 times with PBST. […] After the binding, the plate was washed 5 times with PBST. The resulting solution was incubated at room temperature in PBST that contained peroxidase (HRP)-labeled goat anti-mouse IgG solution diluted to 1/10000 for 1 hour, washed again, and developed with TMB.

[5] = target: T2, hPD-1 on hPD-1-expressing Jurkat cells (Promega, Catalog No.: J1252) (human, UniProt Q15116 25-288); assay: cell-based or functional assay
[6] = target: T2, hPD-1 on hPD-1-expressing Jurkat cells …; assay: flow cytometry, blocking of 1 ug/mL unlabeled hPD-L1 binding to hPD-1-expressing Jurkat cells
Method: The blocking of ligand binding was assayed by flow cytometry. […] The mixture was placed on ice for 30 minutes, washed 3 times with FACS buffer (PBS containing 0.3% BSA), and incubated with PE-labeled goat anti-human Fc on ice for another 30 minutes. Cells were washed three more times with FACS buffer and analyzed by flow cytometry. Data were analyzed using nonlinear regression of Prism software, and IC₅₀ values were calculated.

[7] = target: T1, hPD-1 (Sino Biological Inc., Catalog …); assay: BLI (ForteBio Octet), biotinylated hPD-1 on streptavidin biosensor, antibody in solution, 1:1 global fit
Method: The assay was performed by coupling a hPD-1 fusion protein to a streptavidin biosensor using biotin.
as §1

Chain of hPD-1 (Sino Biological Inc., Catalog No.: 10377-H03H-B) (human) (Q15116 25-167): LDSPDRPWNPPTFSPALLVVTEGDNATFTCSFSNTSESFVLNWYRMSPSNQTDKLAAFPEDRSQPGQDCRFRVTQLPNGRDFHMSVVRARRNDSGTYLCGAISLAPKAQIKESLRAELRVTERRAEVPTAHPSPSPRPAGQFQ
T1 sequence (Q15116 25-167): as above
T2 sequence (Q15116 25-288): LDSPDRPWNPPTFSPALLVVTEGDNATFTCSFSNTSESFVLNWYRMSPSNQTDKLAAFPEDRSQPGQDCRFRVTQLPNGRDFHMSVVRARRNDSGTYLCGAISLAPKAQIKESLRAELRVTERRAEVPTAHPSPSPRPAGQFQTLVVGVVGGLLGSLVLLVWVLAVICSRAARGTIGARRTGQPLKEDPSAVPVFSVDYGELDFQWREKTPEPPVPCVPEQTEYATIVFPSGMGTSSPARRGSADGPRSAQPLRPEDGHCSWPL

Kd [1]: 0.082 nM
B1: CL1 VH (SEQ ID NO: 7) / CL1 VL (SEQ ID NO: 8), scFv (scFv, part only; not given: linker, domain order, tag, V domains shown, not shown: another chain or arm of the molecule; small tags and cut ends)
VH: QVQLVQSGVEVKKPGASVKVSCKASGYTFTNYYMYWVRQAPGQGLEWMGGINPSNGGTNFNEKFKNRVTLTTDSSTTTAYMELKSLQFDDTAVYYCAARDYRLDMGFEFWGQGTTVTVSS
VL: EIVLTQSPATLSLSPGERATLSCRASKGVSTSGYSYLHWYQQKPGQAPRLLIYLASYLESGVPARFSGSGSGTDFTLTISSLEPEDFAVYYCQHAYDLPLTFGGGTKVEIK

Kd [1]: 0.518 nM
B2: CL1 VH (SEQ ID NO: 7) / CL9 VL (SEQ ID NO: 12), scFv (scFv, part only; not given: linker, domain order, tag, V domains shown, not shown: another chain or arm of the molecule; small tags and cut ends)
VH: B1 VH
VL: B1 VL with A95S, D97G, L100V

Kd [1]: 0.149 nM
B3: CL1 VH (SEQ ID NO: 7) / CL7 VL (SEQ ID NO: 40), scFv (scFv, part only; not given: linker, domain order, tag, V domains shown, not shown: another chain or arm of the molecule; small tags and cut ends)
VH: B1 VH
VL: B1 VL with A95S, D97S, L98F

Kd [2]: 0.076 nM
B4: CL1 VH (SEQ ID NO: 7) / CL5 VL (SEQ ID NO: 10), IgG4 (antibody, V domains shown)
VH: B1 VH
VL: B1 VL with A95S
notes: Form IgG4

Kd [3]: 0.606 nM | koff [3]: 0.0005 s⁻¹ | kon [3]: 825000 M⁻¹ s⁻¹ | Kd [2]: 0.0207 nM | EC50 [4]: 0.208 nM | Assay for the functional activity EC50 [5]: 0.269 µg/mL | IC50 [6]: 0.77 nM | Kd [7]: 0.0207 nM | koff [7]: 4.11e-05 s⁻¹ | kon [7]: 1.98e+06 M⁻¹ s⁻¹
B5: antibody CL1 (antibody, human IgG4 S228P, kappa, V domains shown)
VH: B1 VH
VL: EIVLTQSPATLSLSPGERATLSCRASKGVSTSGYSYLHWYQQKPGQAPRLLIYLASYLESGVPARFSGSGSGTDFTLTISSLEPEDFAVYYCQHAYDLPLTFGGGTKVEIKR
notes: also called anti-hPD-1 antibody CL1; CL1 VH / CL1 VL IgG4

Kd [1]: 0.447 nM
B6: CL1 VH (SEQ ID NO: 7) / CL2 VL (SEQ ID NO: 38), scFv (scFv, part only; not given: linker, domain order, tag, V domains shown, not shown: another chain or arm of the molecule; small tags and cut ends)
VH: B1 VH
VL: B1 VL with A95S, D97G

Kd [1]: 0.143 nM
B7: CL1 VH (SEQ ID NO: 7) / CL5 VL (SEQ ID NO: 10), scFv (scFv, part only; not given: linker, domain order, tag, V domains shown, not shown: another chain or arm of the molecule; small tags and cut ends)
VH: B1 VH
VL: B1 VL with A95S

Kd [2]: 0.061 nM
B8: CL1 VH (SEQ ID NO: 7) / CL7 VL (SEQ ID NO: 40), IgG4 (antibody, V domains shown)
VH: B1 VH
VL: B1 VL with A95S, D97S, L98F
notes: Form IgG4

EC50 [4]: 1.34 nM
B9: antibody CL6 (antibody, human IgG4, V domains shown)
VH: B1 VH with L103F
VL: B1 VL with A95S

Kd [2]: 0.189 nM
B10: CL1 VH (SEQ ID NO: 7) / CL2 VL (SEQ ID NO: 38), IgG4 (antibody, V domains shown)
VH: B1 VH
VL: B1 VL with A95S, D97G
notes: Form IgG4

EC50 [4]: 0.594 nM
B11: antibody CL9 (antibody, human IgG4, V domains shown)
VH: B1 VH with R102K, L103F
VL: B1 VL with A95S, D97G, L100V

EC50 [4]: 0.399 nM | Assay for the functional activity EC50 [5]: 0.932 µg/mL
B12: antibody CL5 (antibody, human IgG4, V domains shown)
VH: B1 VH with L103F, F109Y
VL: B1 VL with A95S

Kd [2]: 0.229 nM
B13: CL1 VH (SEQ ID NO: 7) / CL9 VL (SEQ ID NO: 12), IgG4 (antibody, V domains shown)
VH: B1 VH
VL: B1 VL with A95S, D97G, L100V
notes: Form IgG4

EC50 [4]: 0.346 nM
B14: antibody CL7 (antibody, human IgG4, V domains shown)
VH: B1 VH with L103F
VL: B1 VL with A95S, D97S, L98F

EC50 [4]: 0.451 nM
B15: antibody CL2 (antibody, human IgG4, V domains shown)
VH: B1 VH with R102K, L103F, F109Y
VL: B1 VL with A95S, D97G
